Assay results published in article PMC9784262.

Each substance was assayed on Nterm (position 1, -----WR----) (assay: potentiometry). Conditions: 25 °C; not stated (no added salt mentioned); none stated (unbuffered aqueous surfactant solution, N2 atmosphere, magnetic stirring); aggregated (micellar): post-micellar surfactant concentration, exact concentration not stated.
“TANHC10 (tryptophan-arginine decyl amide dihydrochloride) (synthetic)” gave a pKa of 7.2. “TANHC12 (tryptophan-arginine dodecyl amide dihydrochloride) (synthetic)” was tested, and the pKa was 7.8. “TANHC14 (tryptophan-arginine tetradecylamide dihydrochloride) (synthetic)” was tested, and the pKa was 7.0.

These substances were tested on Nterm (position 1, -----FR----) (assay: potentiometry). Conditions: 25 °C; not stated (no added salt mentioned); none stated (unbuffered aqueous surfactant solution, N2 atmosphere, magnetic stirring); aggregated (micellar): post-micellar surfactant concentration, exact concentration not stated.
Substance “PANHC8 (phenylalanine-arginine octyl amide dihydrochloride) (synthetic)” has a pKa of 6.9. “PANHC10 (phenylalanine-arginine decyl amide dihydrochloride) (synthetic)” was tested, and the pKa was 6.9. With “PANHC12 (phenylalanine-arginine dodecyl amide dihydrochloride) (synthetic)” the pKa was 6.1. In the case of “PANHC14 (phenylalanine-arginine tetradecylamide dihydrochloride) (synthetic)”, the pKa is reported as 5.9.
